Numbering of substitutions follows the chain as printed. Numbers in names are those of the source.
T1: PUF4 RNA-binding domain (Saccharomyces cerevisiae, UniProt P25339 537-888)
T1 sequence: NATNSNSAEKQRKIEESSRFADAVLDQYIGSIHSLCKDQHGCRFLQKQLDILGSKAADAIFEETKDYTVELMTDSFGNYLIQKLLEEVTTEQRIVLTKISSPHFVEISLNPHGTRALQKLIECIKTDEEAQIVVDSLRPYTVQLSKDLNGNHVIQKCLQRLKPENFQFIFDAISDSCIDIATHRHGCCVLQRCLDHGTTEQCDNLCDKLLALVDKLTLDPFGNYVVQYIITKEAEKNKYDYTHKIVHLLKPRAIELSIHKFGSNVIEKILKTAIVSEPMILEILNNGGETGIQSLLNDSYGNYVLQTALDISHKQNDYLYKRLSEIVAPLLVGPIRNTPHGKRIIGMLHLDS

B1: Ic_S4_P5E.1_K5.1_C5.1_H5.1_A5.1_[T6G]_[A7T]_F5.1_[T8A]_[T9C]_[A10C]_T5.1 (ssRNA)
RNA: UUUGACAACUGAUCGUUCUUUCUUGUAUGUACCUUCUUUCUCGAUCAGUUGUCUUU
B2: Ic_S4_P5E.1_K5.1_C5.1_H5.1_A5.1_[T5C]_[A7C]_F5.1_[A10T]_T5.1 (ssRNA)
RNA: B1 RNA with U28C, G29U, U30C, A31U, C32U, C33U
B3: Ic_S4_P5E.1_K5.1_C5.1_H5.1_A5.1_[T6A]_[A7G]_F5.1_[T8C]_[T9A]_[A10T]_T5.1 (ssRNA)
RNA: B1 RNA with G29A, U30G, A31C, C32A, C33U
B4: Ic_S4_P5E.1_K5.1_C5.1_H5.1_A5.1_[T6A]_[A7C]_F5.1_[T8C]_[T9G]_[A10G]_T5.1 (ssRNA)
RNA: B1 RNA with G29A, U30C, A31C, C32G, C33G
B5: Ic_S4_P5E.1_K5.1_C5.1_H5.1_A5.1_[T6C]_[A7T]_F5.1_[T9C]_[A10C]_T5.1 (ssRNA)
RNA: B1 RNA with G29C, A31U
B6: Ic_S4_P5E.1_K5.1_C5.1_H5.1_A5.1_[T5G]_[T6C]_F5.1_[T8C]_[A10T]_T5.1 (ssRNA)
RNA: B1 RNA with U28G, G29C, U30A, A31C, C32U, C33U
B7: Ic_S4_P5E.1_K5.1_C5.1_H5.1_A5.1_[T5A]_[T6A]_F5.1_[T8C]_[T9A]_[A10C]_T5.1 (ssRNA)
RNA: B1 RNA with U28A, G29A, U30A, A31C, C32A
B8: Ic_S4_P5E.1_K5.1_C5.1_H5.1_A5.1_[T5C]_[T6A]_[A7G]_F5.1_[A10G]_T5.1 (ssRNA)
RNA: B1 RNA with U28C, G29A, U30G, A31U, C32U, C33G
B9: Ic_S4_P5E.1_K5.1_C5.1_H5.1_A5.1_[T5A]_[T6C]_[A7T]_F5.1_[T8A]_[T9A]_T5.1 (ssRNA)
RNA: B1 RNA with U28A, G29C, C32A, C33A
B10: Ic_S4_P5E.1_K5.1_C5.1_H5.1_A5.1_[T5G]_[T6C]_[A7T]_F5.1_[T8C]_[T9G]_[A10T]_T5.1 (ssRNA)
RNA: B1 RNA with U28G, G29C, A31C, C32G, C33U
B11: Ic_S4_P5E.1_K5.1_C5.1_H5.1_A5.1_[T5A]_[T6C]_F5.1_[T8G]_[T9C]_[A10T]_T5.1 (ssRNA)
RNA: B1 RNA with U28A, G29C, U30A, A31G, C33U
B12: Ic_S4_P5E.1_K5.1_C5.1_H5.1_A5.1_[T5C]_[T6A]_[A7T]_F5.1_[T8A]_[T9A]_[A10C]_T5.1 (ssRNA)
RNA: B1 RNA with U28C, G29A, C32A
B13: Ic_S4_P5E.1_K5.1_C5.1_H5.1_A5.1_[T5G]_[T6C]_F5.1_[T8G]_[A10C]_T5.1 (ssRNA)
RNA: B1 RNA with U28G, G29C, U30A, A31G, C32U
B14: Ic_S4_P5E.1_K5.1_C5.1_H5.1_A5.1_[T6C]_[A7C]_F5.1_[T8A]_[T9G]_[A10C]_T5.1 (ssRNA)
RNA: B1 RNA with G29C, U30C, C32G
B15: Ic_S4_P5E.1_K5.1_C5.1_H5.1_A5.1_[T5G]_[T6C]_[A7T]_F5.1_[T8C]_T5.1 (ssRNA)
RNA: B1 RNA with U28G, G29C, A31C, C32U, C33A
B16: Ic_S4_P5E.1_K5.1_C5.1_H5.1_A5.1_[T5C]_[T6A]_[A7G]_F5.1_[T9G]_[A10C]_T5.1 (ssRNA)
RNA: B1 RNA with U28C, G29A, U30G, A31U, C32G
B17: Ic_S4_P5E.1_K5.1_C5.1_H5.1_A5.1_[A7C]_F5.1_[T9G]_[A10G]_T5.1 (ssRNA)
RNA: B1 RNA with G29U, U30C, A31U, C32G, C33G
B18: Ic_S4_P5E.1_K5.1_C5.1_H5.1_A5.1_[T6C]_F5.1_[T8G]_[A10C]_T5.1 (ssRNA)
RNA: B1 RNA with G29C, U30A, A31G, C32U
B19: Ic_S4_P5E.1_K5.1_C5.1_H5.1_A5.1_[T5A]_[A7T]_F5.1_[T8A]_[A10C]_T5.1 (ssRNA)
RNA: B1 RNA with U28A, G29U, C32U
B20: Ic_S4_P5E.1_K5.1_C5.1_H5.1_A5.1_[T5C]_[T6G]_[A7C]_F5.1_[T9A]_[A10C]_T5.1 (ssRNA)
RNA: B1 RNA with U28C, U30C, A31U, C32A
B21: Ic_S4_P5E.1_K5.1_C5.1_H5.1_A5.1_[A7G]_F5.1_[T8C]_[T9C]_[A10T]_T5.1 (ssRNA)
RNA: B1 RNA with G29U, U30G, A31C, C33U
B22: Ic_S4_P5E.1_K5.1_C5.1_H5.1_A5.1_[A7T]_F5.1_[T8A]_[T9A]_T5.1 (ssRNA)
RNA: B1 RNA with G29U, C32A, C33A
B23: Ic_S4_P5E.1_K5.1_C5.1_H5.1_A5.1_[T6A]_[A7T]_F5.1_[T8A]_[T9C]_[A10G]_T5.1 (ssRNA)
RNA: B1 RNA with G29A, C33G
B24: Ic_S1_P4E.1_K4.1_C4.1_H4.1_A4.1_[T7A]_F4.1_[A9G]_T4.1 (ssRNA)
RNA: UCUCUUUGUAUAAUGUCUCUU
B25: Ib_S1_P4E.1_K4.1_C4.1_H4.1_A4.1_[T7C]_F4.1_[A9G]_T4.1 (ssRNA)
RNA: UCUCUUUGUAUACUGUCUCUU

Biological target: T1, PUF4 RNA-binding domain
Assay: Mg; RNA-MaP; 20 mM Na-HEPES pH 7.4, 30 mM KOAc, 0.75 mM MgCl2, 0.1% Tween-20, 5% glycerol, 0.1 mg/mL BSA, 2 mM DTT; 25 C; 0.0125-409.6 nM protein
Details: tags: N-His6-TEV cleaved; C-SNAP kept, Cy3B-labelled; label: tethered on chip by stalled RNA polymerase

| Binder | Kd [nM] |
| --- | --- |
| B1 | 28.6 |
| B2 | 10.9 |
| B3 | 56.4 |
| B4 | 144 |
| B5 | 17.2 |
| B6 | 172 |
| B7 | 190 |
| B8 | 27.4 |
| B9 | 233 |
| B10 | 476 |
| B11 | 662 |
| B12 | 7.13 |
| B13 | 976 |
| B14 | 1010 |
| B15 | 10.1 |
| B16 | 10.6 |
| B17 | 27.2 |
| B18 | 342 |
| B19 | 126 |
| B20 | 6.66 |
| B21 | 402 |
| B22 | 38.9 |
| B23 | 6.59 |
| B24 | 6.03 |
| B25 | 5.39 |
